The results in this text go back to publication PMC3010429.

In this data set the target is hMutSα (hMSH2-hMSH6) WT recombinant (Homo sapiens, UniProt P43246;P52701 1-934;1-1360). Kind of data set: EMSA, supershift. In general terms: In EMSA bound probe runs differently from free probe, usually more slowly.
Sequence of hMutSα (hMSH2-hMSH6) WT recombinant (P43246 whole entry, chain 1 of 2): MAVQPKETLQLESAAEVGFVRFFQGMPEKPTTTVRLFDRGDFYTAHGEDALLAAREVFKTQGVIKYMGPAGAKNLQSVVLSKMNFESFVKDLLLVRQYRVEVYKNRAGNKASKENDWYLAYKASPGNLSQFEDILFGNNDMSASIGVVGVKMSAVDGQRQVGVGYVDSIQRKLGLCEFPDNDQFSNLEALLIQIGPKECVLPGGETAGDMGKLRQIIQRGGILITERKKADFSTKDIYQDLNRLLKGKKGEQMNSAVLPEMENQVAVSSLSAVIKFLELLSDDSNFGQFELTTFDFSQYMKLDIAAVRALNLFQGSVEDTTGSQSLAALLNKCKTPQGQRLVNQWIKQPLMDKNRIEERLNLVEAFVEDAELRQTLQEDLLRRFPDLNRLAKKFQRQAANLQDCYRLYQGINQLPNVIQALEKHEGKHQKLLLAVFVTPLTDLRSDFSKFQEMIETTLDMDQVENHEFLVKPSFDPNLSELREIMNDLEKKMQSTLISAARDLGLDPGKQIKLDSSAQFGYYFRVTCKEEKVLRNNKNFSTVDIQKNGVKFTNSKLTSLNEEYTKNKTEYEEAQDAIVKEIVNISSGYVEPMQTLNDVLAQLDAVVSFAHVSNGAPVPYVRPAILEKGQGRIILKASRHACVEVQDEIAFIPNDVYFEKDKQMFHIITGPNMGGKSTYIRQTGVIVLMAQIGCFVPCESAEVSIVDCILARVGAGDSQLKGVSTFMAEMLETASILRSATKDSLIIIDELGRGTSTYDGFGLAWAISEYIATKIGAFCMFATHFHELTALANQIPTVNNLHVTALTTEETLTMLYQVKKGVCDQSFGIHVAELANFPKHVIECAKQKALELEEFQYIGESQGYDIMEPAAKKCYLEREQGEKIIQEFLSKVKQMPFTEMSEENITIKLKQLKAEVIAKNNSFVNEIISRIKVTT
Sequence of hMutSα (hMSH2-hMSH6) WT recombinant (P52701 whole entry, chain 2 of 2): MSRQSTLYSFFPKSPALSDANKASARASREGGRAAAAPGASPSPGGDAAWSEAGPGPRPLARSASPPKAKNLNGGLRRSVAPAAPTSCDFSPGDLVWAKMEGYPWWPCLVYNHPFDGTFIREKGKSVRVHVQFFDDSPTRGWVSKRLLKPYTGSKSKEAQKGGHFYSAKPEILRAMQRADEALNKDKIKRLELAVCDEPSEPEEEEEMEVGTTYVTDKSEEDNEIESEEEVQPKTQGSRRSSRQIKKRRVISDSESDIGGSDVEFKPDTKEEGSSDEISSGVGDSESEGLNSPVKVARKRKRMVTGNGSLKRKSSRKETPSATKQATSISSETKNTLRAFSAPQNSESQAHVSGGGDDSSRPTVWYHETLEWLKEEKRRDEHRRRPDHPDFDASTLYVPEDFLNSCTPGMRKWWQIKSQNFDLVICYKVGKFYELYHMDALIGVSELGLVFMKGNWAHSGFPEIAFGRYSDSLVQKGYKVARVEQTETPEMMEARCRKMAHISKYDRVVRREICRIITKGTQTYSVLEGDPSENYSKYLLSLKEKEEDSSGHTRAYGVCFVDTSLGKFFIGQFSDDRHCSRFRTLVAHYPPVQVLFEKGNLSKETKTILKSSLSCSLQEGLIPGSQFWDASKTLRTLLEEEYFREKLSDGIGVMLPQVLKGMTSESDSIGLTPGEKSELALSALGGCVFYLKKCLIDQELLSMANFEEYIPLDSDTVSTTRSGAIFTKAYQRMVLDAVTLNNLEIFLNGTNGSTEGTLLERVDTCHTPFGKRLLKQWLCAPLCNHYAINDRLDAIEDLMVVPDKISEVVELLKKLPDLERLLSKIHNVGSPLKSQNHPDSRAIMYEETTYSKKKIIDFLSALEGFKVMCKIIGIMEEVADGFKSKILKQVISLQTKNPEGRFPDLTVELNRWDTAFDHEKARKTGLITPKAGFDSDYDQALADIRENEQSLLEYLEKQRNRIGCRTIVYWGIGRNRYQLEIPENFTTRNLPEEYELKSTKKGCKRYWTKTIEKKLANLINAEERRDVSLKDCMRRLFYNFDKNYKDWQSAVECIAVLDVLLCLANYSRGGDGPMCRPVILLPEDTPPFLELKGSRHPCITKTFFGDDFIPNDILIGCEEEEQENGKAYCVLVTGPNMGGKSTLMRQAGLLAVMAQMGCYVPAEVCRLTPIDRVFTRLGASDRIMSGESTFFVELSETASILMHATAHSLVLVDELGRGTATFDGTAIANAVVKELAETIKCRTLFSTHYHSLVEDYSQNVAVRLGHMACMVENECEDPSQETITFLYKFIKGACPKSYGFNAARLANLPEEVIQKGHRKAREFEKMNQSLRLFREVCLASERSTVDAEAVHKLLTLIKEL

B1: G:T 69mer (dsDNA)
DNA 1: AATTCACGGAATATAAGCTGGTGGTGGTGGGCGCCGGCGGTTGGGCAAGAGTGCGCTGACCATCCAGG
DNA 2: CCTGGATGGTCAGCGCACTCTTGCCCAACCGTCGGCGCCCACCACCACCAGCTTATATTCCGTGAATT
For the molecule B1, the binding result is “binds”.
